B1: Globulin 3 (protein, listed as Triticum aestivum)
chain: MATRARVTIPLLFLLGTSLLFAAAVSASHDEEEDRRGGRSLQQCVQRCQQDRPRYSHARCVQECRDDQQQHGRHEQEEQGRGHGRHGEGEREEEQGRGRGRHGQGEREEEQGRGRGRRGEGERDEEHGDGRRPYVFGPRSFRRIIRSDHGFVKALRPFDEVSRLLRGIRNYRVAIMEVNPRAFVVPGLTDADGVGYVAQGEGVLTVIENGEKRSYTVRQGDVIVAPAGSIMHLANTDGRRKLVIAKILHTISVPGKFQYFSAKPLLASLSKRVLTAALKTSDERLGSLLGSRQGKEEEEKSISIVRASEEQLRELRRQASEGDQGHHWPLPPFRGDSRDTFNLLEQRPKIANRHGRLYEADARSFHALAQHDVRVAVANITPGSMTAPYLNTQSFKLAVVLEGEGEVEIVCPHLGRDSERREQEHGKGRWRSEEEEDDRRQQRRRGSGSESEEEQDQQRYETVRARVSRGSAFVVPPGHPVVEIASSRGSSNLQVVCFEINAERNERVWLAGRNNVIAKLDDPAQELTFGRPAREVQEVFRAKDQQDEGFVAGPEQQQEHERGDRRRGDRGRGDEAVEAFLRMATAAL
modifications: posttranslational modification
notes: same protein as spot 12, differing posttranslational modification
B2: Gamma-gliadin (protein, listed as Triticum aestivum)
chain: MKIFMVFALLVASTTITTATAQLDPRIHDQERPQQSFLQQQPLIQQQPYPPQEPQQPLFPQKEPQQPFPLQQPQYQQQQPYPQQPLPQEQLPQQHLFPQQPPQQQFPQQMPLPHQQQTFPQQQQQQQQQEQLPQQLPQFPQQQPFSQYQQPLTQQPYSQEQPLPQQQPSVEEKQQLNLCKEFLLQQCNPEEKLSLLQSVIPFLRPKTSQQNSCQLKRLQCCRQLAHISEPSRCPAIHNIVHAIVMQQQHVDRGFGQPQPQQLGQEMPMQPQHQLGQHSILPQQLAQYKLVRLLVIQTLPMLCNVHVPSDCYTITAPFGSMTAYNGGQ
modifications: posttranslational modification
notes: same protein as spot 16, differing posttranslational modification

Key:
[1] = system: IgE antibodies from patients; assay: Wheat epitope mapping (3): alanine/glycine scanning; assay type: binding, human; details: from analysis of epitope mapping (A) to (C); many samples
Method: From the amino acid sequences identified above in (A), a library of peptide fragments in which amino-terminal amino acids were substituted one by one by alanine (or glycine when the original amino acid was alanine) according to a technique called alanine/glycine scanning (Non Patent Literature 5) was prepared by the same technique as described above. The presence or absence of binding of an IgE antibody present in the serum of a patient to each peptide fragment was measured by the same technique as described above.
Chemiluminescence intensity in images obtained by measurement was converted into a numeric value in the same manner as in (A). Numeric values determined from images obtained from secondary antibody measurement values were used as control values. The control value of each peptide was subtracted from numeric values determined from images obtained from results about the serum of 49 patients. When values obtained using the sequences (SEQ ID NOs: 29, 131, 191, 281, 346, 414, 493, 562, 640, 706, 776, 899, 974, 1010, 1089, 1142, 1166, 1209, 1257, 1297, 1367, 1403, 1508, 1566, 1598, 1608, 1685, 1753, 1789, 1836, 1895, 1977, 2004, 2027, 2068, 2154, 2217, 2265, 2309, 2342, 2419, 2491, 2545, 2613, 2631, 2674, 2701, 2774, 2809 and 2830) serving as the basis of alanine/glycine scanning were defined as 100%, it was determined that: a peptide having a value of the difference that was less than 30% had no binding activity against IgE antibodies; a peptide having a value of the difference that was 30% or more and less than 50% had binding activity, albeit poor, against IgE antibodies; a peptide having a value of the difference that was 50% or more and less than 70% had binding activity, albeit somewhat poor, against IgE antibodies; and a peptide having a value of the difference that was 70% or more had equivalent or good binding activity against IgE antibodies and was thus a peptide had remaining binding activity against IgE antibodies.
By analysis of the results of (A) to (C), common sequences important for exertion of original antigenicity were found in regions important for binding to IgE antibodies from patients, in the sequences serving as the basis of alanine/glycine scanning.

[2] = system: IgE antibody in the serum of a wheat-allergic patient; assay: Immunoblotting of two-dimensional electrophoresis pattern of wheat proteins with patient serum; assay type: binding, human; details: immunoblot of 2D electrophoresis; compared with serum of non-wheat-allergic subject
Method: Identification of antigens by immunoblotting was carried out by taking all the steps up to the step of “Second-dimensional SDS-PAGE” as described above in Example 1, followed by the steps of “Transfer to membrane”, “Immunoblotting” and “Analysis” as described below.
Transfer to membrane was done using the following transfer system and transfer buffer. • Transfer system: XCell SureLock Mini-Cell and XCell II Blot Module (produced by Life Technologies) • Transfer buffer: NuPAGE Transfer Buffer (×20) (produced by Life Technologies), used in a form diluted […] with milliQ water. […]
The immunoblots obtained with the serum from the wheat-allergic patient were compared with those obtained with the control serum from the non-wheat-allergic subject. For protein present in wheat, in immunoblotting using the serum from the wheat-allergic patient, 16 spots were detected (FIG. 2), which are different from the spots detected when the serum of the non-wheat-allergic subject was used and different from those of the known wheat allergen proteins. […]

Molecule | short polypeptide confirmed as epitope binding to IgE antibodies [1] | specific binding of IgE antibody in serum of wheat-allergic patient to protein spot [2]
SEQ ID NO: 58: polypeptide consisting of 4 amino acid residues, among sequences of (E1) (PIQQ; REGION 1..4: note = epitope) | confirmed as epitopes binding to IgE antibodies in many samples | 
B1 |  | binding to IgE antibodies was confirmed
B2 |  | binding to IgE antibodies was confirmed

From patent US20240393292A1, “ALLERGY ANTIGEN AND EPITOPE THEREOF” (HOYU CO., LTD., priority 2019, published 2024)
